# According to the Human Domainome abundance scans (Beltran et al. 2025):
# ± gives the uncertainty stated by the source.
# B1: Lysine-specific demethylase 2B, residues 656 to 722; numbered along this chain, Q8NHM5 (parent)
# chain: LPHTAVCLVCGEAGKEDTVEEEEGKFNLMLMECSICNEIIHPGCLKIKESEGVVNDELPNCWECPKC
# Variants of: B1
# Test: abundance fitness (aPCA) (normalised: wild type 0, dead -1); higher = more abundant; growth selection in yeast, the domain comes from the species named
# Conditions: Homo sapiens
row,Variant,abundance fitness
1,LPHTAVCLVCGEAGKEDTVEEEEGKFDLMLMECSICNEIIHPGCLKIKESEGVVNDELPNCWECPKC,-0.058 ± 0.27
2,LPHTAVCLVCGEAGKEDTVEEEEGKFNLMLMECSICNEIIHPGCLKIKESEGVVNDPLPNCWECPKC,-0.296 ± 0.18
3,LPHTAVCLVCGEAGKEDTVEEEEGKFNLMLMECSICNEIIHPGCLKIKESEGVVNDWLPNCWECPKC,-0.305 ± 0.11
4,LPHTAVCLVCGEAGKEDTVEEEEGKFNLMLMECSICNEHIHPGCLKIKESEGVVNDELPNCWECPKC,0.245 ± 0.16
5,LPHTAVCLVCGEAGKECTVEEEEGKFNLMLMECSICNEIIHPGCLKIKESEGVVNDELPNCWECPKC,0.039 ± 0.17
6,LPHTAVCLVCGEAGKEDTVEEEEGKFNLMLMECSICNEIIHPGCLKIWESEGVVNDELPNCWECPKC,-0.119 ± 0.092
7,LPHTAVCLVCGEAGKEDTVEEEEGKFNLMLMECSICNGIIHPGCLKIKESEGVVNDELPNCWECPKC,-0.286 ± 0.063
8,LPHTAVCLVCGEAGKEDTVEEEEGKFNLMLMECSIFNEIIHPGCLKIKESEGVVNDELPNCWECPKC,-1.21 ± 0.43
9,LPHTAVCLVCGEAGKEDTVEEEEGKFNLMLMECSICNEIIHPGCLKIKESEGVANDELPNCWECPKC,0.089 ± 0.12
10,LPHTAVCLVCGEAGKEDTVEEEEGKFNLMLMECSICNEIIHPACLKIKESEGVVNDELPNCWECPKC,0.085 ± 0.1
11,LPHTAVCLVCGEAGKEDTVEEEEGKFNLMLMECSICNEIIHPMCLKIKESEGVVNDELPNCWECPKC,0.113 ± 0.099
12,LPHTAVCLVCGEAGKEDTVEEEEGKPNLMLMECSICNEIIHPGCLKIKESEGVVNDELPNCWECPKC,-0.165 ± 0.14
13,LPHTAVCLVCGEAGKEDTVEEEEGKKNLMLMECSICNEIIHPGCLKIKESEGVVNDELPNCWECPKC,-0.257 ± 0.14
14,LPHTAVCLVCGEAGKEDTVEEEEGKFNLMLMECSICNEIIHPGCLKIKESEGAVNDELPNCWECPKC,0.047 ± 0.098
15,LPHTAVCLVCSEAGKEDTVEEEEGKFNLMLMECSICNEIIHPGCLKIKESEGVVNDELPNCWECPKC,-0.113 ± 0.11
16,LPHTAVCLVCGEAGKEDTVEEEEGKFNLMLLECSICNEIIHPGCLKIKESEGVVNDELPNCWECPKC,-0.053 ± 0.1
17,LPHTAVCLVCGEAGKEDTVEEEEGKFNLMLAECSICNEIIHPGCLKIKESEGVVNDELPNCWECPKC,-0.18 ± 0.093
18,LPHTAVCLVCGEAGKEDTVCEEEGKFNLMLMECSICNEIIHPGCLKIKESEGVVNDELPNCWECPKC,-0.105 ± 0.063
19,LPHTAVCLVCGEAGKEDTVEEEEGKFNLMLMECSICNEIIHPGCLKIKESEGVVNDELKNCWECPKC,0.076 ± 0.11
20,LPHTAVCLVCGEAGKEDTVEEEEGKFNLMLMECSICNEIIHPGCLKIKESEGVVNDELCNCWECPKC,-0.076 ± 0.11

row,Variant,abundance fitness
1,LPHTAVCLVCGEAGKEDTVEEEEGKFNLMLMECSICNEIIHPGCLKIKESEGVVNDELPICWECPKC,-0.186 ± 0.11
2,LPHTAVCLVCGEAGKEDTVEEEEGKFNLMLMECSICNEIGHPGCLKIKESEGVVNDELPNCWECPKC,-0.229 ± 0.067
3,LPHTAVCLVCGEAGKEDTVEEEEGKFNLMLMECSICNEICHPGCLKIKESEGVVNDELPNCWECPKC,-0.06 ± 0.16
4,LPHTAVCLVCGEAGKEDTVEAEEGKFNLMLMECSICNEIIHPGCLKIKESEGVVNDELPNCWECPKC,0.107 ± 0.1
5,LPHTAVCLVCGEAGKEDTVEEEEGKFNLMLMECSICNEIIHPGCLKIKESEGVVMDELPNCWECPKC,-0.203 ± 0.17
6,LPHTAVCLVCGEAGKEDTVEEEEGKFNLMLMECSICNEIIHPGCLKIKESEGVVGDELPNCWECPKC,-0.022 ± 0.11
7,LPHTAVCLVCGEAGKEDTVEEEEGKFNLMLMECSICNEIIHPGCLKIKESEGVVADELPNCWECPKC,-0.089 ± 0.13
8,LPHTAVCLVCGEAGKEDTVEEEEGKFNLMLMECSICNEIIHPGCLKYKESEGVVNDELPNCWECPKC,-0.007 ± 0.22
9,LQHTAVCLVCGEAGKEDTVEEEEGKFNLMLMECSICNEIIHPGCLKIKESEGVVNDELPNCWECPKC,0.184 ± 0.15
10,LLHTAVCLVCGEAGKEDTVEEEEGKFNLMLMECSICNEIIHPGCLKIKESEGVVNDELPNCWECPKC,0.807 ± 0.12
11,LPHTAVCLVCGEAGKEDTVEEEEGKFNLMLMECSICNEIIHPGCLKIKESSGVVNDELPNCWECPKC,-0.131 ± 0.098
12,LPHTAVCLVCGEAGKEDTVEEEEGKFNLMLMECSICNEIIHPGCLKIKESPGVVNDELPNCWECPKC,-0.328 ± 0.15
13,LPHTAVCLVCGEAGKEDTVEEEEGKFNLMLMECSICNEIIHPGCLKIKESEGVVNDELPNCWEIPKC,-0.778 ± 0.36
14,LPHTAVCLVCGEAGKEDTVEEEEGKFNLMLMECSICNEIIHPGCLKIKESEGVVNDELPNCWEQPKC,-0.662 ± 0.2
15,LPHTAVCLVCGEAGKEDTVEEEEGKFNLMLMECSICNEIIHPGCLKIKESEGVVNDELPNCWEKPKC,-0.749 ± 0.15
16,LPHTAVCLVCGEAGKEDTVEEEEGKFNLMLMECSICNEIIHPGCLKIKESEGVVNDELPNCWEAPKC,-1.05 ± 0.21
17,LPHTAVCLVCGEAGKEDTVEEEEGKFNLMLMECSICNEIIHPGCLKIKESEGVVNDELPNCWECPPC,-0.049 ± 0.16
18,LPHTAVCLVCGEAGKEDTVEEEEGKFNLMLMECSICNEIIHPGCLKIKESEGVVNDELPNCWECPRC,-0.145 ± 0.084
19,LPHTAVCLVCGEAGKEDTVEEEEGKFNLMTMECSICNEIIHPGCLKIKESEGVVNDELPNCWECPKC,-0.212 ± 0.098
20,LPHTAVCLVCGEAGKEDTVEEEEGKFNLMLMECSICNEIIHPGCLKIKESEGVVNDELPNCWGCPKC,-0.252 ± 0.1
